Residue numbers refer to the chain shown, from its start.
T1: cynomolgus monkey FcγRIIa3 extracellular domain, His-tagged (cynomolgus monkey)
T1 construct: also called cyno FcgRIIa3; cynoFcγRIIa3; not shown: His-tag added to the C-terminus
T1 chain: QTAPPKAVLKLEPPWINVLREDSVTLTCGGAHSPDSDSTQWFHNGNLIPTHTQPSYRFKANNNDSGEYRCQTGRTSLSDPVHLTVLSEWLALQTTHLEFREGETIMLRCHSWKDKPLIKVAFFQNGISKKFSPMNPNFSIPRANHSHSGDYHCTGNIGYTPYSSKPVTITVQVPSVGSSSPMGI

T2: cynomolgus monkey FcγRIIb extracellular domain, His-tagged (cynomolgus monkey)
T2 construct: also called cyno FcgRIIb; cynoFcγRIIb; not shown: His-tag added to the C-terminus
T2 chain: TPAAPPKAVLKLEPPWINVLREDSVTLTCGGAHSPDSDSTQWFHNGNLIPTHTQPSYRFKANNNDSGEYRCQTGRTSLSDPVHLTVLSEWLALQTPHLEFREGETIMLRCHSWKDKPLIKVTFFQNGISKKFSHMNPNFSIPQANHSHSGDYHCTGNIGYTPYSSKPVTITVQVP

T3: human FcγRIIaH extracellular domain, His-tagged (human, UniProt P12318 34-217)
T3 construct: also called human FcgRIIaH; FcγRIIa (type H); not shown: His-tag added to the C-terminus
T3 sequence: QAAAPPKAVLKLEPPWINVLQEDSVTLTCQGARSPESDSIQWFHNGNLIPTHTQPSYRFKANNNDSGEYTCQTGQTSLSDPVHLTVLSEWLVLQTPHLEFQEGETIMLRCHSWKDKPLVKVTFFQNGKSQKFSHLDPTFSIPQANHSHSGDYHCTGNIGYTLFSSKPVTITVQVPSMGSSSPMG

T4: human FcγRIIaR extracellular domain, His-tagged (human, UniProt P12318 34-217)
T4 construct: also called human FcgRIIaR; FcγRIIa (type R); not shown: His-tag added to the C-terminus
T4 chain: T3 sequence with H134R

T5: human FcγRIIb extracellular domain, His-tagged (human, UniProt P31994 43-217)
T5 construct: also called human FcgRIIb; not shown: His-tag added to the C-terminus
T5 sequence: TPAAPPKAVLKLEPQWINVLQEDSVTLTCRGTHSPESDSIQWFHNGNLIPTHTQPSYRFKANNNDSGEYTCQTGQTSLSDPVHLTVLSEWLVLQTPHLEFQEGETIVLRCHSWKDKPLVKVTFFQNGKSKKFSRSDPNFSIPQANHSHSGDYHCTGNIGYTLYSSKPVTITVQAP

B1: M103205H795-MY264/M103202L889-SK1 (antibody, human IgG1, kappa)
heavy: QVTLKESGPVLVKPTETLTLTCTVSGIDLSHDDISWVRQAPGKGLEWVGIISYAGSTYYASWAKGRLTISKDTSKNQVVLTMTNMDPVDTATYYCARGVPAYSHGGDLWGQGTLVTVSSASTKGPSVFPLAPSSKSTSGGTAALGCLVKDYFPEPVTVSWNSGALTSGVHTFPAVLQSSGLYSLSSVVTVPSSSLGTQTYICNVNHKPSNTKVDKKVEPKSCDKTHTCPPCPAPELLLGPSVFLFPPKPKDTLMISRTPEVTCVVVDVSDEDPEVKFNWYVDGVEVHNAKTKPREEQYNSTYRVVSVLTVLHQDWLNGKEYKCKVSNKALPKPIEKTISKAKGQPREPQVYTLPPSREEMTKNQVSLTCLVKGFYPSDIAVEWESNGQPENNYKTTPPVLDSDGSFFLYSKLTVDKSRWQQGNVFSCSVMHEALHNHYTQKSLSLSP
light: DIVMTQSPATLSLSPGERATLSCTSSQSVYHANWLSWFQQKPGQPPKLLIYWASTLAYGVPSRFSGSGSGTDFTLTISSLQPEDAATYYCAGGYGGGRYAFGQGTKVEIKRTVAAPSVFIFPPSDEQLKSGTASVVCLLNNFYPREAKVQWKVDNALQSGNSQESVTEQDSKDSTYSLSSTLTLSKADYEKHKVYACEVTHQGLSSPVTKSFNRGEC
notes: copies: 2 + 2
B2: M103205H795-MY265/M103202L889-SK1 (antibody, human IgG1, kappa)
heavy: B1 heavy with L238T
light: B1 light
notes: copies: 2 + 2
B3: M103205H795-MY267/M103202L889-SK1 (antibody, human IgG1, kappa)
heavy: B1 heavy with L238I
light: B1 light
notes: copies: 2 + 2

Columns and labels:
Experiment in all cases: SPR; KD of SG1 divided by KD of the variant;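 note: relative to parent M103205H795-SG1 carrying the SG1 human heavy chain constant region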
[1] = molecular target: T1, cynomolgus monkey FcγRIIa3 …
Procedure: (§1) Regarding such interactions, KD values were calculated using the following 1:1 binding model described in BIACORE® T100 Software Handbook BR1006-48 Edition AE.
(§2) The behavior of interacting molecules according to the 1:1 binding model on BIACORE® can be described by Equation 1: Req=C·R max/(KD+C)+RI, wherein, Req is a plot of steady-state binding levels to analyte concentration. C is concentration, RI is bulk refractive index contribution in the sample, and Rmax is analyte binding capacity of the surface. When this equation is rearranged, KD can be expressed as Equation 2: KD=C·Rmax/(Req−RI)−C. KD can be calculated by substituting the values of Rmax, RI, and C into Equation 1 or Equation 2. From the current measurement conditions, RI=0, C=2 μmol/L can be used.
(§3) The resultant variants were expressed using M103202L889-SK1 as light chain and their affinity to human and cynoFcγRs were evaluated (Table 21).

[2] = molecular target: T2, cynomolgus monkey FcγRIIb extracellular …
Procedure: as §1, §2, §3

[3] = molecular target: T3, human FcγRIIaH extracellular domain, …
Procedure: as §1, §2, §3

[4] = molecular target: T4, human FcγRIIaR extracellular domain, …
Procedure: as §1, §2, §3

[5] = molecular target: T5, human FcγRIIb extracellular domain, …
Procedure: as §1, §2, §3

[6] = molecular target: T6, human FcγRIIIaV extracellular domain, His-tagged (human, UniProt P08637 17-208)
T6 construct: also called human FcgRIIIaV; not shown: His-tag added to the C-terminus
Procedure: as §1, §2, §3

T6 sequence (P08637 17-208 F176V): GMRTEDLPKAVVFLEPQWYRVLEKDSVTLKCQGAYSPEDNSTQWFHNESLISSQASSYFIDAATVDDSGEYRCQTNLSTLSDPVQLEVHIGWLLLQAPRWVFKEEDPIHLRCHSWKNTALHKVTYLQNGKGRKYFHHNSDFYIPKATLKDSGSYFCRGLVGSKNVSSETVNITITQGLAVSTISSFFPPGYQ

Row | Binder | KD fold (SG1 = 1) [1] [fold] | KD fold (SG1 = 1) [2] [fold] | KD fold (SG1 = 1) [3] [fold] | KD fold (SG1 = 1) [4] [fold] | KD fold (SG1 = 1) [5] [fold] | KD fold (SG1 = 1) [6] [fold]
1 | B1 | 1.1 | 0.7 | 0.5 | 0.5 | 0.4 | 0.01
2 | B2 | 3.5 | 3.1 | 3.3 | 2.5 | 2.1 | 0.15
3 | B3 | 2.3 | 2.1 | 3.5 | 2.5 | 0.8 | 0.05
